Measurements as given in patent US20190071499A1 (published 2019).
Substitutions are numbered along the chain they refer to.

T1: peptide 23 of human IFN-αW (IFN-ω) (human)
T1 construct: spotted on a microarray through a linker
T1 peptide: TGLHQQLQHLETCLLQVV

T2: peptide 22 of human IFN-α2 (human)
T2 construct: spotted on a microarray through a linker
T2 peptide: YTELYQQLNDLEACVIQG

T3: g1mIFN-α9 (mouse, UniProt P09235 24-190)
T3 construct: also called murine IFN-α9 (Gaussia luciferase fusion); not shown: Gaussia luciferase fusion partner
T3 sequence (looked up): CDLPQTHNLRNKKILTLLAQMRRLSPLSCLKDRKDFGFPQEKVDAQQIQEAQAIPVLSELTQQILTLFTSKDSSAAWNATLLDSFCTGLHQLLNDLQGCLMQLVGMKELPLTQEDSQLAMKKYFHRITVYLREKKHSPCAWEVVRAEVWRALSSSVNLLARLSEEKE

T4: g1mIFN-α1 (mouse, UniProt P01572 24-189)
T4 construct: also called murine IFN-α1 (Gaussia luciferase fusion); not shown: Gaussia luciferase fusion partner
T4 sequence (looked up): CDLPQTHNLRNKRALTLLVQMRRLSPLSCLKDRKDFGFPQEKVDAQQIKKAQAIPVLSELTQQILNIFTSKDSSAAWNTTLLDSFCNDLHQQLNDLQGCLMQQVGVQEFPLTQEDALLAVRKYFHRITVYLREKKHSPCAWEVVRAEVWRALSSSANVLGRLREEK

T5: human Fc fusion mouse IFN-α4 (mouse, UniProt P07351 25-186)
T5 construct: bought (SinoBiological); also called murine IFN-α4; not shown: human Fc
T5 sequence (looked up): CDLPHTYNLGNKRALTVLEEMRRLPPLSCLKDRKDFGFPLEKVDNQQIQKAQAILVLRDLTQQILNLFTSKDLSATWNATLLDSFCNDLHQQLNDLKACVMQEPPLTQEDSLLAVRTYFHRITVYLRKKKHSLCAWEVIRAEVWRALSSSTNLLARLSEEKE

T6: human Fc fusion mouse IFN-α2 (mouse, UniProt P01573 24-190)
T6 construct: bought (SinoBiological); also called murine IFN-α2; murine INFA2; not shown: human Fc
T6 sequence (looked up): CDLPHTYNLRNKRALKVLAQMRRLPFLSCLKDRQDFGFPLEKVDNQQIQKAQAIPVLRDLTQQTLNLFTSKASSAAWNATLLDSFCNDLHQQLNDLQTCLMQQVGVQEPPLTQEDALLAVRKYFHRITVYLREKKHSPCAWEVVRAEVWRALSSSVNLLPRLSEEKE

B1: 31B4 (antibody, human IgG1, kappa, V domains shown)
VH: QIQLQESGPGLVRPTETLSLTCSVSGDSISQSSHYWAWIRQPPGKGPEWIGSVYFSSMTHYNPSLTSRVSISIDKAMNKFSLKVTSVTVADTATYYCARQALARVGAMNWFDPWGQGSLVTVSS
VL: DIIMTQSPESLPVSLGEGVTINCKSSQSVFFTSSNRSCLAWYQQKPGQSPKLLIYWASTRQSGVPDRFTGSGSGTDFSLTIAGLQVEDVAVYFCQQCHASPPTFGGGTRLELRR
notes: human-derived IgG1, kappa; clonally related to 26B9; also called MAB 31B4; hMAB 31B4
B2: 25C3 (antibody, human IgG1, kappa, V domains shown)
VH: EMQLMESGGGLVQPGGSLRLSCVASGFTFKSFAMSWVRQAPGKGLEWVASVGSQGGSKYYAPSVKGRFSISRDNSNNTLYVQMNSLGVEDTAFYYCVKETDAVATMDALDMWGQGTLVIVST
VL: DIRVTQSPSSLSASVGDRVSISCQTSQSVNIYLNWYQQRPGKGPQLLISAASTLQSGVPSRFSGSGSGTDFILTIISLQPEDSASYYCQQGYITPYTFGQGTKVEIKR
notes: human-derived IgG1, kappa; also called MAB 25C3; hMAB 25C3
B3: 13B11 (antibody, human IgG1, kappa, V domains shown)
VH: DVQLLQSGGGLIQPGGSLRLSCAASGFTFKDYAMSWVRQAPGKGLEWVSVISRSGNIVDYVDSVKGRFTVSRDNSNNTLFLQMDGLRADDTAIYYCAKPKDMIVVVPAGFDSWGQGTLVSVSS
VL: DIQMTQFPSTLSASVGDSVTITCRASQSISAWLAWYQQKPGKAPKLLIYKGSRLENGVPSRFSGSGSGTEFTLTIGSLQPDDFATYYCQQYKTWTFGQGTKVEIKR
notes: human-derived IgG1, kappa; also called MAB 13B11; hMAB 13B11
B4: 26B9 (antibody, human IgG1, kappa, V domains shown)
VH: B1 VH with Q3L, R13K, Q31D, T66K, I73V, A76P, M77K, K79Q
VL: DIIMTQSPDSLPVSLGEGVTINCKSSQSVFFTSSNKSCLAWYQQKPGKSPKLLIYWASTRQSGVPDRFRGSGSGTDFSLTITSLQAEDVAVYFCQQCQTSPPTFGGGTRLEIKR
notes: human-derived IgG1, kappa; also called MAB 26B9; hMAB 26B9
B5: 8H1 (antibody, human IgG1, kappa, V domains shown)
VH: QVQLVQSGAEVKKPGASVKVSCKASGQTFTSDDINWVRQAPGQGLEWMGWRNPNTQDTGYAQKFHGRLTLTSNSSISTSYLELSGLRSEDTAVYYCARAGTSTLTGHYFALGVWGQGTTVIVSS
VL: DIQLTQSPSSLSASVGDRVTITCQATQDISKYLNWYQQKPGKVPKLLIYETSNLEVGVPSRFSGSGSGTHFTLTISSLQAEDFATYYCQQYENFPFTFGGGTKVEIKR
B6: 12H5 (antibody, human IgG1, kappa, V domains shown)
VH: QVQLIQSGPEVKRPGASVKVSCKASENTFDTHYINWVRQAPGQGLTWLGWLNPTTGKTGFPQKFKGRVILTSDTSLNTAYMEVSRLTSEDTAVYFCARVLKLSDEYNYGFDVWGQGTTVIVSS
VL: DIQVTQSPSSLSASIGDRVTITCRASQNILTFINWYQHKPGKAPKLLIYAASVLQNEVPSRFSGSGSGTDFTLTITSLQPDDFGTYYCQQTYLTPQCSFGQGTKVEIKR
B7: 50E11 (antibody, human IgG1, kappa, V domains shown)
VH: QVQLVQSGAEMKKPGSSVKVSCKDFGGTFSVYGVNWVRQAPGQGLEWMGGLIPVIGPANYAQKFQGRITITADESTSTAYMELSSLRFDDTAIYYCVRDDNEYWGQGTLVTVSS
VL: EMVLTQSPATLSLSPGERATLSCRASQTVSTFLAWYQQKPGQVPRLLVYDISSRANGTPARFSGGGSGTDFTLTISSLELEDFAVYYCQWRSNWPPSLTFGGGTRVEIKR

Each binder was assayed against T7, human IFN-α4 (human, UniProt P05014 24-189) (assay: ELISA or LIPS (Table 7 summary)).
T7 construct: commercial recombinant protein; also called rhIFN-α4; IFN-α4 (SinoBiological)
T7 sequence (P05014 24-189 limits assumed): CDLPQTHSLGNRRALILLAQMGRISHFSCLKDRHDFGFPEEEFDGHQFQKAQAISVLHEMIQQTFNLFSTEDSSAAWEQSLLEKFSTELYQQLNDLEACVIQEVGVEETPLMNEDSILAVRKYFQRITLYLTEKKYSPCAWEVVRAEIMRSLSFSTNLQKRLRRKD

Row | binding result | Binder
1 | binds | B1

These binders were tested against T8, human IFN-α21 (human, UniProt P01568 24-189) (assay: ELISA or LIPS (Table 7 summary)).
T8 construct: commercial recombinant protein; also called rhIFN-α21; IFN-α21 (PBL)
T8 sequence (P01568 24-189 limits assumed): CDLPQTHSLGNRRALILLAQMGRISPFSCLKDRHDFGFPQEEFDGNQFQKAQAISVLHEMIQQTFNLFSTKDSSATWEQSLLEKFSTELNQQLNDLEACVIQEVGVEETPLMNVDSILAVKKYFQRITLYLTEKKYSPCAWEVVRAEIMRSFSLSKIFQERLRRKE

Row | binding result | Binder
2 | binds | B2
3 | binds | B1

These binders were tested against T9, human IFN-α1 (human, UniProt P0DY56 24-189) (assay: ELISA or LIPS (Table 7 summary)).
T9 construct: commercial recombinant protein; also called IFN-alpha 1beta; IFN-α1/13
T9 sequence (P0DY56 entry or part of it limits assumed): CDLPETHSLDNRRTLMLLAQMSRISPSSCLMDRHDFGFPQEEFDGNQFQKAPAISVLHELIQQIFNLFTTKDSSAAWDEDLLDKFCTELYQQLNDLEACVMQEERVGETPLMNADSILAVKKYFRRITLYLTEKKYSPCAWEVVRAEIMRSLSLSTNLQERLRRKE

Row | binding result | Binder
4 | binds | B3
5 | binds | B2
6 | binds | B1

Each binder was assayed against T10, human IFN-α14 (human, UniProt P01570 24-189) (assay: ELISA or LIPS (Table 7 summary)).
T10 construct: commercial recombinant protein; also called rhIFN-α14; IFN-α14 (ATGen)
T10 sequence (P01570 24-189 limits assumed): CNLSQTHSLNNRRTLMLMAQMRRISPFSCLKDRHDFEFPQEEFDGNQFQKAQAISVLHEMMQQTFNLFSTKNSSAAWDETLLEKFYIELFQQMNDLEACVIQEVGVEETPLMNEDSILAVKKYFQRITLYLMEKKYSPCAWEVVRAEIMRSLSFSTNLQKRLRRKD

Row | binding result | Binder
7 | binds | B3
8 | binds | B1

What follows are binders tested against T11, human IFN-α16 (human, UniProt P05015 24-189) (assay: ELISA or LIPS (Table 7 summary)).
T11 construct: recombinant protein; also called rhIFN-α16
T11 sequence (P05015 24-189 limits assumed): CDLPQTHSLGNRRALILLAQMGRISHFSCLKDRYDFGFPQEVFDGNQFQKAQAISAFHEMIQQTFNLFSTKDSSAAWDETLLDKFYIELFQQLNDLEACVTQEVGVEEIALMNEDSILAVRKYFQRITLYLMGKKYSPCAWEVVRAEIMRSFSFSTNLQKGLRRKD

Row | binding result | Binder
9 | binds | B3
10 | binds | B2
11 | binds | B1

What follows are binders tested against T12, human IFN-α10 (human, UniProt P01566 24-189) (assay: ELISA or LIPS (Table 7 summary)).
T12 construct: recombinant protein; also called rhIFN-α10
T12 sequence (P01566 24-189 limits assumed): as the sequence (P05014 24-189 limits assumed) above, with A19G, H26P, G37R, F38I, E40Q, H46N, T132I, K134R counted along it

Row | binding result | Binder
12 | binds | B2
13 | binds | B1

Molecular target: T1, peptide 23 of human IFN-αW (IFN-ω)
Test: peptide microarray, 18mer peptides of human IFN-αW

Row | binding result | Binder
14 | binds | B4

Each binder was assayed against T13, g1 IFN-α10 (human, UniProt P01566 24-189) (assay: LIPS, IFN-Gaussia luciferase fusion proteins).
T13 construct: in-house fusion; also called IFN-α10-Gaussia luciferase fusion protein; not shown: Gaussia luciferase (naturally secreted), N-terminal fusion partner
T13 sequence (P01566 24-189): as the sequence (P05014 24-189 limits assumed) above, with A19G, H26P, G37R, F38I, E40Q, H46N, T132I, K134R counted along it

Row | binding result | Binder
15 | binds | B1

Molecular target: T2, peptide 22 of human IFN-α2
Test: peptide microarray, 18mer peptides of human IFN-α2

Row | binding result | Binder
16 | binds | B4

The binders below were run against T3, g1mIFN-α9 (assay: LIPS).

Row | binding result | Binder
17 | no binding | B3
18 | no binding | B2
19 | no binding | B4
20 | no binding | B1

Each binder was assayed against T4, g1mIFN-α1 (assay: LIPS).

Row | binding result | Binder
21 | no binding | B3
22 | no binding | B2
23 | no binding | B4
24 | no binding | B1

What follows are binders tested against T7, human IFN-α4 (assay: cell-based or functional assay).

Row | IC 50 (ng/ml), ISRE dual luciferase reporter assay | Binder
25 | 5.43 ng/mL | B5
26 | 0.48 ng/mL | B6
27 | 2.07 ng/mL | B4
28 | 20.2 ng/mL | B7

Each binder was assayed against human IFN-α7 (human, UniProt P01567 24-189) (assay: cell-based or functional assay).
Chain of human IFN-α7 (P01567 24-189 limits assumed): as the sequence (P05014 24-189 limits assumed) above, with G10R, H26P, D35E, G37R, A51T, S116F, T132M, L152F, Q159K, R161G counted along it

Row | IC 50 (ng/ml), ISRE dual luciferase reporter assay | Binder
29 | 0.9 ng/mL | B5
30 | 0.64 ng/mL | B6
31 | 1.57 ng/mL | B4
32 | 1.9 ng/mL | B7

Each binder was assayed against T8, human IFN-α21 (assay: cell-based or functional assay).

Row | IC 50 (ng/ml), ISRE dual luciferase reporter assay | Binder
33 | 2.78 ng/mL | B5
34 | 13 ng/mL | B6
35 | 4.65 ng/mL | B4
36 | 3.05 ng/mL | B7

Each binder was assayed against T9, human IFN-α1 (assay: cell-based or functional assay).

Row | IC 50 (ng/ml), ISRE dual luciferase reporter assay | Binder
37 | 29 ng/mL | B5
38 | 51.3 ng/mL | B6
39 | 8.6 ng/mL | B4
40 | 97.4 ng/mL | B7

These binders were tested against T10, human IFN-α14 (assay: cell-based or functional assay).

Row | IC 50 (ng/ml), ISRE dual luciferase reporter assay | Binder
41 | 785 ng/mL | B5
42 | 2.15 ng/mL | B6
43 | 2.01 ng/mL | B4
44 | 9.2 ng/mL | B7

These binders were tested against human IFN-α6 (human, UniProt P05013 24-189, limits assumed) (assay: cell-based or functional assay).
Chain of human IFN-α6 (P05013 24-189 limits assumed): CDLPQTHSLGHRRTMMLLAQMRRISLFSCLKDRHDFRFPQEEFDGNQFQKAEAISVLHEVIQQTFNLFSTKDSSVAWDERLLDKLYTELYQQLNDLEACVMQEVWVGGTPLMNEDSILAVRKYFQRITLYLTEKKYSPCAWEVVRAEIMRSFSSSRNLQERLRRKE

Row | IC 50 (ng/ml), ISRE dual luciferase reporter assay | Binder
45 | 77.7 ng/mL | B5
46 | 3.55 ng/mL | B6
47 | 3.16 ng/mL | B4
48 | 39.3 ng/mL | B7

Each binder was assayed against human IFN-α17 (human, UniProt P01571 24-189) (assay: cell-based or functional assay).
Chain of human IFN-α17 (P01571 24-189 limits assumed): as the sequence (P05014 24-189 limits assumed) above, with H26P, F38L, E40Q, H46N, A51T, D95N, V106M, R161I counted along it

Row | IC 50 (ng/ml), ISRE dual luciferase reporter assay | Binder
49 | 2.11 ng/mL | B5
50 | 0.75 ng/mL | B6
51 | 2.22 ng/mL | B4
52 | 2.31 ng/mL | B7

What follows are binders tested against human IFN-ω (human, UniProt P05000 24-195, limits assumed) (assay: cell-based or functional assay).
Chain of human IFN-ω (P05000 24-195 limits assumed): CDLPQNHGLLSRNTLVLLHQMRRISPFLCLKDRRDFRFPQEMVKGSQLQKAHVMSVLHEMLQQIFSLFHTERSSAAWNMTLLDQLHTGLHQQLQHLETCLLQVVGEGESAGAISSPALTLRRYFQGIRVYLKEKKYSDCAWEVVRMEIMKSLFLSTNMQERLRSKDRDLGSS

Row | IC 50 (ng/ml), ISRE dual luciferase reporter assay | Binder
53 | 2.13 ng/mL | B5
54 | 0.5 ng/mL | B4
55 | 113 ng/mL | B7

These binders were tested against T11, human IFN-α16 (assay: cell-based or functional assay).

Row | IC 50 (ng/ml), ISRE dual luciferase reporter assay | Binder
56 | 1.86 ng/mL | B5
57 | 33 ng/mL | B6
58 | 4010 ng/mL | B4
59 | 2.35 ng/mL | B7

What follows are binders tested against human IFN-α5 (human, UniProt P01569 24-189, limits assumed) (assay: cell-based or functional assay).
Chain of human IFN-α5 (P01569 24-189 limits assumed): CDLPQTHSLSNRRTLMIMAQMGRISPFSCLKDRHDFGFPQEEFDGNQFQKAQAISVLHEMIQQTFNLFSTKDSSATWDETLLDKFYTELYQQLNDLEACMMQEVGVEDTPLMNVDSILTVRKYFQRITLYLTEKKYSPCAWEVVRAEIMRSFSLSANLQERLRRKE

Row | IC 50 (ng/ml), ISRE dual luciferase reporter assay | Binder
60 | 1.78 ng/mL | B5
61 | 22.6 ng/mL | B6
62 | 3.74 ng/mL | B4
63 | 0.91 ng/mL | B7

Each binder was assayed against T12, human IFN-α10 (assay: cell-based or functional assay).

Row | IC 50 (ng/ml), ISRE dual luciferase reporter assay | Binder
64 | 2.69 ng/mL | B5
65 | 0.66 ng/mL | B6
66 | 1.84 ng/mL | B4
67 | 3.63 ng/mL | B7

What follows are binders tested against T5, human Fc fusion mouse IFN-α4 (assay: ELISA, human Fc fusion mouse IFN-α).
Experimental: (§1) 96 well microplates (Costar, USA) were coated with human IFN-α1, IFN-α2 (ImmunoTools), IFN-α4 (SinoBiological), IFN-α5, IFN-α6, IFN-α8, IFN-α21 (all form PBL) and IFN-α14 (ATGen) or IFN-α8 (Novus Biologicals). Plates were washed with PBS-T and blocked 1 h at room temperature with PBS containing 2% BSA (Sigma, Buchs, Switzerland). Patient sera, B cell conditioned medium, or recombinant antibody preparations were incubated for 2 h at room temperature. Binding of human IgG to the antigen of interest was determined using a horseradish peroxidase conjugated goat anti human Fe-gamma-specific antibody (Jackson ImmunoResearch, Europe Ltd., Cambridgeshire, UK) followed by measurement of the HRP activity using a TMB substrate solution (TMB, Sigma, Buchs, Switzerland).

Row | binding result | Binder
68 | no binding | B3
69 | no binding | B4
70 | no binding | B1

These binders were tested against T6, human Fc fusion mouse IFN-α2 (assay: ELISA, human Fc fusion mouse IFN-α).
Experimental: as §1

Row | binding result | Binder
71 | no binding | B3
72 | no binding | B4
73 | no binding | B1
